The Kd is the free concentration of one partner at which half of the binding sites on the other are occupied at equilibrium, for simple one-to-one binding.

These results are taken from paper PMC6221542.

This test addresses H3K9me3 peptide NH2-…(me3)STGG-minipeg-K(5-fam)-NH2. Nature of the test: fluorescence polarisation. (In fluorescence polarisation assays a small probe gives low polarisation when free and higher when bound to something large.)
The substance “CBX1 chromodomain V22E/K25E/D59S (domain or fragment)” had a Kd of 0.21 µM. In other words, the sub-micromolar range.
“CBX1 chromodomain V22E/K25S/D59F (domain or fragment)” had a Kd of 0.32 µM.
“CBX1 chromodomain, wild type (domain or fragment)” displayed a Kd of 2.78 µM.
